Measured values reported in patent US20190054150A1 (AEQUUS BIOPHARMA, published 2019).
Square brackets hold non-standard residues; d marks the D form. Ends that are not written are not given here. Nle = CCCC[C@H](N)C(=O)O

B1: ACTH1-24-point-5-10aa-NDP-α-MSH (peptide)
peptide: SYSMEHFRWGKPVGKKRRAVKVYPGGGGSGGGGSSYS[Nle]EH[dF]RWGKPV
B2: ACTH1-24-point-1-2-7aa-NDP-α-MSH (peptide)
peptide: SYSMEHFRWGKPVGAARRPVKVYPGGGGSGGSYS[Nle]EH[dF]RWGKPV
modifications: ends and bridges not checked
B3: ACTH1-24-linker-linker-NDP-α-MSH (peptide)
peptide: SYSMEHFRWGKPVGKKRRPVKVYPGGGGSGGGGSSYS[Nle]EH[dF]RWGKPV
modifications: ends and bridges not checked
B4: NDP-α-MSH-linker-linker-ACTH1-24 (peptide)
peptide: Ac-SYS[Nle]EH[dF]RWGKPVGGGGSGGGGSSYSMEHFRWGKPVGKKRRPVKVYP
B5: ACTH1-24-point-3-5-4aa-NDP-α-MSH (peptide)
peptide: SYSMEHFRWGKPVGKKAAAVKVYPGGGSSYS[Nle]EH[dF]RWGKPV
modifications: ends and bridges not checked
B6: ACTH1-24-4aa-NDP-α-MSH (peptide)
peptide: SYSMEHFRWGKPVGKKRRPVKVYPGGGSSYS[Nle]EH[dF]RWGKPV
modifications: ends and bridges not checked
B7: ACTH1-24-7aa-NDP-α-MSH (peptide)
peptide: SYSMEHFRWGKPVGKKRRPVKVYPGGGGSGGSYS[Nle]EH[dF]RWGKPV
modifications: ends and bridges not checked
B8: ACTH1-24-point-3-5-10aa-NDP-α-MSH (peptide)
peptide: SYSMEHFRWGKPVGKKAAAVKVYPGGGGSGGGGSSYS[Nle]EH[dF]RWGKPV
modifications: ends and bridges not checked
B9: ACTH1-24-point-5-4aa-NDP-α-MSH (peptide)
peptide: SYSMEHFRWGKPVGKKRRAVKVYPGGGSSYS[Nle]EH[dF]RWGKPV
B10: ACTH1-24-point-3-5-7aa-NDP-α-MSH (peptide)
peptide: SYSMEHFRWGKPVGKKAAAVKVYPGGGGSGGSYS[Nle]EH[dF]RWGKPV
modifications: ends and bridges not checked
B11: ACTH1-24-point-5-7aa-NDP-α-MSH (peptide)
peptide: SYSMEHFRWGKPVGKKRRAVKVYPGGGGSGGSYS[Nle]EH[dF]RWGKPV
B12: ACTH1-24-point-1-2-10aa-NDP-α-MSH (peptide)
peptide: SYSMEHFRWGKPVGAARRPVKVYPGGGGSGGGGSSYS[Nle]EH[dF]RWGKPV
modifications: ends and bridges not checked
B13: ACTH1-24-point-1-2-4aa-NDP-α-MSH (peptide)
peptide: SYSMEHFRWGKPVGAARRPVKVYPGGGSSYS[Nle]EH[dF]RWGKPV
modifications: ends and bridges not checked

Tests used:
Assay in all cases: cell-based or functional assay
MCR1 = MCR1 (human, UniProt Q01726 1-317)
MCR1, sequence (Q01726 whole entry): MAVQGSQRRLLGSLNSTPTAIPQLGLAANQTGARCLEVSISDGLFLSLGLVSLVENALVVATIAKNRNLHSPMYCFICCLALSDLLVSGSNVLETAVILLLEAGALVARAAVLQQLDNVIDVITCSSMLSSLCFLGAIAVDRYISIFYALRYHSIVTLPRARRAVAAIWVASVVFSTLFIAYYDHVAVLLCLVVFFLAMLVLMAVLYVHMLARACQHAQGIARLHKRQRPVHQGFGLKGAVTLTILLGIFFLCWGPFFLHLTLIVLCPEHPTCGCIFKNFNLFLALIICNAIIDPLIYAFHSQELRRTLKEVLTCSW

MCR3 = MCR3 (human, UniProt P41968 1-323)
MCR3, sequence (P41968 whole entry): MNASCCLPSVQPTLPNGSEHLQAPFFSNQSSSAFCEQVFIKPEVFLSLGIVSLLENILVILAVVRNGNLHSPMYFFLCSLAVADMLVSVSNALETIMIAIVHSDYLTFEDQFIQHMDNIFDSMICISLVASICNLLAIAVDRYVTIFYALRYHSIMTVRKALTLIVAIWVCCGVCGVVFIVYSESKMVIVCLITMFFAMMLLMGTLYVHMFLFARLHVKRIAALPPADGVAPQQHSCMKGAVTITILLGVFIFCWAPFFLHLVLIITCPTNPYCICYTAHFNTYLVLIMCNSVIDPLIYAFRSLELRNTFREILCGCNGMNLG

MCR4 = MCR4 (human, UniProt P32245 1-332)
MCR4, sequence (P32245 whole entry): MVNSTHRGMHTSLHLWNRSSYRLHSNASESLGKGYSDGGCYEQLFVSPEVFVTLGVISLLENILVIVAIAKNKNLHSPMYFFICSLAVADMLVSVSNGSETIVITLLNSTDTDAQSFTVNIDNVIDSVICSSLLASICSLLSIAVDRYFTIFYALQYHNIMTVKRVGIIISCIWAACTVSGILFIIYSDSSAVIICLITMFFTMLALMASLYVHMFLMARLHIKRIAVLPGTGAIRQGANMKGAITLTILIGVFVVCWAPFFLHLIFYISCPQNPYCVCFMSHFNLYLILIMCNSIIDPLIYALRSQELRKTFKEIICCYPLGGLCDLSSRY

MCR5 = MCR5 (human, UniProt P33032 1-325)
MCR5, sequence (P33032 whole entry): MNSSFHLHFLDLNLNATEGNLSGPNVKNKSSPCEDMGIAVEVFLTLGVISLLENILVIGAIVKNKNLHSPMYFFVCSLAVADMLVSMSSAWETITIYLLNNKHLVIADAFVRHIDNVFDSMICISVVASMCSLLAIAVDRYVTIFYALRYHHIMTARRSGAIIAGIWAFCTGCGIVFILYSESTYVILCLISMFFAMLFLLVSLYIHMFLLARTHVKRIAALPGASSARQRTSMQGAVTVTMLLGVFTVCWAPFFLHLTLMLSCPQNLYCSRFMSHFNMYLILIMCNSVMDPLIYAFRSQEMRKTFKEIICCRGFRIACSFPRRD

Binder	MCR1 EC50 (nM); cAMP production, LANCE cAMP assay, CHO-MCR1 cells, cell pool C (MCR1) [nM]	MCR3 EC50 (nM); cAMP production, LANCE cAMP assay, CHO-MCR3 cells, cell pool C (MCR3) [nM]	MCR4 EC50 (nM); cAMP production, LANCE cAMP assay, CHO-MCR4 cells, cell pool C (MCR4) [nM]	MCR5 EC50 (nM); cAMP production, LANCE cAMP assay, CHO-MCR5 cells, cell pool C (MCR5) [nM]
B1	0.69	1	2.8	11
B2	0.3	0.47	2.3	10
B3	0.39	0.8	1.8	9.6
B4	0.46	1.8	2.2	9.8
B5	0.3	0.61	2.4	14
B6	0.41	0.92	1.9	9.3
B7	0.24	0.85	1.5	13
B8	0.78	1.1	3.8	16
B9	0.32	0.68	1.8	20
B10	0.41	0.72	2.4	8.5
B11	0.22	0.76	2.1	12
B12	0.45	0.58	2.3	13
B13	0.25	0.42	1.7	11
